Measured values: PMC5593947 (2017)

Key:
[1] = target: T1, Coxsackievirus A6 (CVA6) A-particle (Coxsackievirus A6 strain TW-2007-00141); test: SPR
T1 chain 1: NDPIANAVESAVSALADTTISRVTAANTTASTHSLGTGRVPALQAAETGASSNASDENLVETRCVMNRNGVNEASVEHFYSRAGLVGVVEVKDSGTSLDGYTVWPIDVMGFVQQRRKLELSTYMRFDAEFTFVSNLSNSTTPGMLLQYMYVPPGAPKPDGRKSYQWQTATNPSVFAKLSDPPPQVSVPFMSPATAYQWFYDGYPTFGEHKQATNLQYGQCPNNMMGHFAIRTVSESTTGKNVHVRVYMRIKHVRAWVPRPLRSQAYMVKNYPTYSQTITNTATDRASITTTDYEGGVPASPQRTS
T1 chain 2: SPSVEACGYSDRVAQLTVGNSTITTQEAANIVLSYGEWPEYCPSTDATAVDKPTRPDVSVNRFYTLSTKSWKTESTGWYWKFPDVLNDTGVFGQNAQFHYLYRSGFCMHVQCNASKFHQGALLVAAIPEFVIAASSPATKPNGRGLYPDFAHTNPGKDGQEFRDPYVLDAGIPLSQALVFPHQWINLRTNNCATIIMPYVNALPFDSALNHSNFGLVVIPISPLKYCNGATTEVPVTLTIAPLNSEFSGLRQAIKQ
T1 chain 3: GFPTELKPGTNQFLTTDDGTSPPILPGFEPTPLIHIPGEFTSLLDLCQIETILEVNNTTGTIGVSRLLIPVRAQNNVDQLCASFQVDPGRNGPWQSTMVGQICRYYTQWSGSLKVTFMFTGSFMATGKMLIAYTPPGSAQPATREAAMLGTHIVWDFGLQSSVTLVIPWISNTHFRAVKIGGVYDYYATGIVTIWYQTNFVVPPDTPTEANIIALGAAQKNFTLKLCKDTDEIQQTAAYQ

[2] = target: T1, Coxsackievirus A6 (CVA6) A-particle; test: SPR
[3] = target: T1, Coxsackievirus A6 (CVA6) A-particle; test: SPR
[4] = target: T2, Coxsackievirus A6 (CVA6) procapsid (Coxsackievirus A6 strain TW-2007-00141); test: ELISA
T2 chain 1: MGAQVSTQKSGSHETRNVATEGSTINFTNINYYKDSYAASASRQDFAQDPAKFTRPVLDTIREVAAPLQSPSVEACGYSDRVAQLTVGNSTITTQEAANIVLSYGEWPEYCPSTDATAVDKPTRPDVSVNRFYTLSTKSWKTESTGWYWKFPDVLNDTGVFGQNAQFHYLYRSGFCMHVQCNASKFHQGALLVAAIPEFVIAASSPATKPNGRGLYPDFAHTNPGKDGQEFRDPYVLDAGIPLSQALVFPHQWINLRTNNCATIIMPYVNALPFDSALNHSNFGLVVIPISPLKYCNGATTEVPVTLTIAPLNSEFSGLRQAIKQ
T2 chain 2: T1 chain 1
T2 chain 3: T1 chain 3

B1: neutralizing monoclonal antibody 1D5 (antibody, V domains shown)
VH: EVQLVESGGGLVKPGGSLKLSCAASGFAFSTYDMSWVRQTPEKRLELVAHISSGGGYIYYPDTVKGRFTISRDNAKNTLYLQMSSLKSEDTAMYYCTRQKGLYYGFDYWGQGTTLTVSS
VL: DIVMTQSHKFMSTSVGDRVSITCKASQDVNTAVAWYQQRPGQSPKLLIYSASYRYTGVPDRFTGSGSGTDFTFTISSVQAEDLAVYYCQQHYTTPHTFGGGTKLEIK
- Ka [1]: 2.41e+08 M⁻¹
- koff [2]: 0.000634 s⁻¹
- Kd [3]: 4.14 nM
- EC50 [4]: 0.069 µg/mL
